In patent publication US20240158515A1, “ANTI-FGFR3 ANTIBODIES AND ANTIGEN-BINDING FRAGMENTS AND METHODS OF USE THEREOF” (Regeneron Pharmaceuticals, Inc., priority 2022, published 2024):

Assays:
[1] = system: CD73 protein level in UMUC14 cells; assay: CD73 expression in UMUC14 cells in vitro, Western blot; type: cell-based; conditions: 1 nM, 10 nM, 100 nM, 48 hrs, FIG. 6
Experimental: To investigate the effect of anti-FGFR3 antibody or tyrosine kinase inhibitor (AZD4547; commercially available) on CD73 expression, UMUC14 bladder cancer cells were seeded in 6 well tissue culture plate (Corning) in complete medium (MEM medium with 10% FBS, 1% Non-Essential Amino Acids, Pen/Strep) and cultured overnight at 37° C. 5% CO2. Cells were then treated with antibodies or inhibitors at indicated concentration (100 nM, 10 nM or 1 nM) for 48 hrs. Cells were washed with pre-chilled PBS and collected in lysis buffer containing protease and phosphatase inhibitors. Equal amount of cell lysates were analyzed by SDS-PAGE. Blots were blocked in 0.5% Tween 20 in Tris buffered saline (TBS) containing 5% non-fat dry milk followed by overnight incubation with anti-CD73 primary antibody (Cell Signaling Technology). After washing 3× with TBST and incubation with secondary antibody, membranes were developed with SuperSignal West Pico or Femto substrate and luminescence images were captured with a C300 imager (Azure Biosystems).

[2] = system: CD73 protein level in Fadu S249C tumors; assay: CD73 expression in Fadu S249C tumors in vivo, Western blot; design: species or system SCID mice; conditions: FGFR3 mAb 15 mg/kg one intraperitoneal dose; AZD4547 25 mg/kg daily gavage; FIG. 11A-11B
Experimental: To test the effect of anti-FGFR3 inhibitory antibody or tyrosine kinase inhibitor (AZD4547) on CD73 expression in vivo, tumor cells (5×10^6 UMUC14, 3×10^6 Fadu EV or S249C, in 50% Matrigel) were implanted subcutaneously into the right flank of 6 to 8-week-old female SCID mice (Jackson Laboratory). Once tumors were established (˜200 mm^3 in volume), mice were randomized into treatment groups (n=5-6 mice per group) and injected intraperitoneally once with anti-FGFR3 antibodies (15 mg/kg) or isotype control. Tyrosine kinase inhibitor AZD4547 (25 mg/kg) was administered once daily by oral gavage for 3 days. Tumors were collected 4 days post treatment initiation. Tumors were collected, snap frozen and lysed in RIPA buffer. Equal amount of tumor lysates were analyzed by SDS-PAGE and blotted with anti-CD73 and anti-FGFR3 antibodies as described above. Membranes were developed with SuperSignal West Pico or Femto substrate and luminescence images were captured with a C300 imager (Azure Biosystems). Intensity of each CD73 and actin band was quantitated using Image J (NIH), and the ratio of CD73/actin for each sample were graphed using Prism Graphpad.

[3] = system: BaF3 cells expressing FGFR3 S249C; assay: BaF3 proliferation assay, FGFR3 S249C (TKI resistance study); type: cell-based, murine; conditions: 72 h, CellTiter-Glo, FIG. 12A left; read-out: IC50, growth of BaF3 cells expressing FGFR3 S249C
Experimental: (§1) IL-3 dependent murine pro B cell line BaF3 cells were engineered to stably express full length human FGFR3b S249C, V557L, V557M, S249C/V557L, S249C/V557M (accession number for WT FGFR3b NP_001156685.1, amino acids M1-T808). Cells were maintained in RPMI 1640+10% FBS+P/S/G+1 ng/ml mouse IL-3+500 ug/ml Neomycin; 37° C. 5% CO2. For proliferation assays, cells were washed with IL-3-free culture media and plated at 10^5 cells/well into 96-well black wall tissue culture plates. Cells were treated with 1:3 serially diluted antibody as indicated in the presence or absence of 5 μg/ml heparin and 1 nM human FGF1. After addition of antibodies, cells were incubated at 37° C./5% CO2 for 72 h followed by the addition of an equal volume of CellTiter-Glo™ (Promega) reagent to lyse cells and detect luciferase activity. Luminescence signal was quantitated with Envision plate reader (PerkinElmer). EC50 values of the antibodies were determined using GraphPad Prism software.

[4] = system: BaF3 cells expressing FGFR3 S249C/V557M; assay: BaF3 proliferation assay, FGFR3 S249C/V557M; type: cell-based, murine; conditions: FIG. 12B
Experimental: as §1

[5] = system: BaF3 cells expressing FGFR3 S249C/V557L; assay: BaF3 proliferation assay, FGFR3 S249C/V557L; type: cell-based, murine; conditions: FIG. 12A right
Experimental: as §1

[6] = molecular target: T1, human FGFR3b (hFGFR3b.mmH, REGN3152) (Homo sapiens, UniProt P22607); assay: Biacore SPR binding kinetics, monomeric human FGFR3b to captured antibodies; conditions: 25° C.
T1 construct: REGN3152 (human FGFR3b expressed with a C-terminal myc-myc-hexahistidine tag)
Experimental: (§2) Biacore binding kinetics of anti-FGFR3 antibodies, in an antibody capture format, to monomeric human FGFR3b, cynomolgus FGFR3b, murine FGFR3b, human FGFR3c, and dimeric human FGFR3b ecto domain recombinant proteins at 25° C. were analyzed.
(§3) Equilibrium dissociation constants (KD values) for human FGFR3b expressed with a C-terminal myc-myc-hexahistidine tag (hFGFR3b.mmH, REGN3152) or cynomolgus FGFR3b expressed with a C-terminal myc-myc-hexahistidine tag (mfFGFR3b.mmH, REGN3521), or murine FGFR3b expressed with a C-terminal myc-myc-hexahistidine tag (mFGFR3b.mmH, REGN3215) or human FGFR3c expressed with a C-terminal myc-myc-hexahistidine tag (hFGFR3c.mmH, REGN3155) or human FGFR3b expressed with an C-terminal murine Fc tag (hFGFR3b.mFc, REGN3153) binding to purified anti-FGFR3 antibodies were determined using a real-time surface plasmon resonance biosensor technology using a Biacore 3000 or Biacore 4000 instrument. […] Antibody-reagent association was monitored for 5 minutes while dissociation in HBS-EP running buffer was monitored for 10 minutes. […]
(§4) The specific SPR-Biacore sensorgrams were obtained by a double referencing procedure. […] Kinetic association (ka) and dissociation (kd) rate constants were determined by fitting the real-time sensorgrams to a 1:1 binding model using Scrubber v2.0c curve fitting software. […]

[7] = molecular target: T2, human FGFR3c (hFGFR3c.mmH, REGN3155) (Homo sapiens, UniProt P22607); assay: Biacore SPR binding kinetics, monomeric human FGFR3c to captured antibodies; conditions: 25° C.
T2 construct: REGN3155 (human FGFR3c expressed with a C-terminal myc-myc-hexahistidine tag)
Experimental: as §2, §3, §4

[8] = molecular target: T3, hFGFR3c-hFc binding to hFGF acidic protein (Homo sapiens, UniProt P22607); assay: ELISA blocking of hFGFR3c-hFc binding to hFGF acidic
T3 construct: hFGFR3c extracellular domain (amino acids Glu23-Gly375); purchased R&D Systems 766-FR-050
T3 sequence (P22607 23-375): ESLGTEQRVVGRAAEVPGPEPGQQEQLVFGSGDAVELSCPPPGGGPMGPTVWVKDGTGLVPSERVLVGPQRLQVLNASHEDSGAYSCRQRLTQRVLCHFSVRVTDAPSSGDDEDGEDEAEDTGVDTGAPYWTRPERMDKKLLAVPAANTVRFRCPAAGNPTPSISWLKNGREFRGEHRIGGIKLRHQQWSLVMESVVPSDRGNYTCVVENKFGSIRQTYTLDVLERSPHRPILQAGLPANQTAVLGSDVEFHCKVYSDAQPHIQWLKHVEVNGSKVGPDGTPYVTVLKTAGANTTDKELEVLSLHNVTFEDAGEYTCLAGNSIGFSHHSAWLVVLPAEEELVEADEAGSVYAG
From the text: (§5) An ELISA-based blocking assay was developed to determine the ability of anti-FGFR3 antibodies to block the binding of human fibroblast growth factor receptor 3 isoform b (hFGFR3b) or human fibroblast growth factor receptor 3 isoform c (hFGFR3c) to human fibroblast growth factor acidic (hFGF acidic) or basic (hFGF basic) ligands.
(§6) The human FGFR3b recombinant protein used in the experiments had the hFGFR3b extracellular domain (amino acids E23-G377) expressed with the Fc portion of the mouse IgG2a at the C-terminus (amino acids E98-K330) (hFGFR3b-mFc, accession #NM_001163213.1). The hFGFR3c and hFGF acidic proteins were purchased commercially. […]
(§7) In the blocking assay, a 96-well microtiter plate was coated with either hFGF acidic or hFGF basic proteins at […] in PBS+10 mg/ml heparin overnight at 4° C. […] After a 1 hour incubation at room temperature, plates were washed, and plate-bound hFGFR3b-mFc or hFGFR3c-hFc proteins were detected with horseradish peroxidase (HRP) conjugated goat anti-mouse or goat anti-human Fcγ fragment specific antibodies. The plates were then developed using TMB substrate solution (BD Biosciences) according to the manufacturer's recommended procedure and absorbance at 450 nm was measured on a Victor X5 plate reader.
(§8) Binding data were analyzed using a sigmoidal (four-parameter logistic) dose-response model using GraphPad Prism software. […]

[9] = molecular target: T4, hFGFR3c-hFc binding to hFGF basic protein (Homo sapiens, UniProt P22607); assay: ELISA blocking of hFGFR3c-hFc binding to hFGF basic
T4 construct: hFGFR3c extracellular domain (amino acids Glu23-Gly375); purchased R&D Systems 766-FR-050
T4 sequence (P22607 23-375): T3 sequence (P22607 23-375)
From the text: as §5, §6, §7, §8

T2 sequence (P22607 with tags, fused parts or gaps): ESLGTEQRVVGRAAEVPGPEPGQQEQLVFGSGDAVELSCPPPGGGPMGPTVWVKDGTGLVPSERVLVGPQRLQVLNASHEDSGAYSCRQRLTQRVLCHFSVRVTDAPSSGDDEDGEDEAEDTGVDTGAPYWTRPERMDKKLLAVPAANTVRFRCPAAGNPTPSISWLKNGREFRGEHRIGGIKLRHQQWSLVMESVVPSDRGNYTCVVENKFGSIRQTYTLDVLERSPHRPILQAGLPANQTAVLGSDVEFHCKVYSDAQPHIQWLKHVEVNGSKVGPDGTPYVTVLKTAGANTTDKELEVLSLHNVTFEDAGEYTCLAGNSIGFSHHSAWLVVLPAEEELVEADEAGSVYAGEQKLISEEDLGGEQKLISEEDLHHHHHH
T1 sequence (P22607 with tags, fused parts or gaps isoform P22607-2): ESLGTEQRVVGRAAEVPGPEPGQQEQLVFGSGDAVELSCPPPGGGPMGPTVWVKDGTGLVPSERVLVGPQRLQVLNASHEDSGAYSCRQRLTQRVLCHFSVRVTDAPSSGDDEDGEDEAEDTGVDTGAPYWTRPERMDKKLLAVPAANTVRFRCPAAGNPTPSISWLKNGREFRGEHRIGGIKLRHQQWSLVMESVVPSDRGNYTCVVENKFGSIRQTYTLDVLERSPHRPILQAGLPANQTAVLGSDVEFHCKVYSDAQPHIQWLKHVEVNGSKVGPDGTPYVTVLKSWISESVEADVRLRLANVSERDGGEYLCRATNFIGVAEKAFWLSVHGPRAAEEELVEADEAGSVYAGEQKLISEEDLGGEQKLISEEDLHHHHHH

Row | Substance | CD73 expression in UMUC14 cells in vitro (in words) [1] | CD73 expression in Fadu S249C tumors in vivo (in words) [2] | IC50 [3] | growth inhibition of BaF3 cells expressing FGFR3 S249C+V557M (in words) [4] | growth inhibition of BaF3 cells expressing FGFR3 S249C+V557L (in words) [5] | ka [6] | kd [6] | ka [7] | kd [7] | Antibody blocking 0.4 nM hFGFR3c-hFc binding to hFGF acidic protein, % Blocking at 200 nM mAb [8] | Antibody blocking 7 nM hFGFR3c-hFc binding to hFGF basic protein, % Blocking at 200 nM mAb [9]
1 | AZD4547 [reference compound] | dose dependent downregulation of CD73 expression | decreased expression of CD73 relative to mice treated with control | 9.9 nM | ineffective | ineffective |  |  |  |  |  | 
2 | REGN6331: comparator; relates to FGFR3b mAb, hIgG1 (mAb 184.6.1 N54S, Genentech); HC SEQ ID NO: 244, LC SEQ ID NO: 243 [reference compound] |  |  |  |  |  | 883000 M⁻¹ s⁻¹ | 0.000616 s⁻¹ | 544000 M⁻¹ s⁻¹ | 0.00132 s⁻¹ | 86% | 87%
